± gives the standard deviation.
Experiment: protein stability index of a GFP-peptide fusion (GPS, HEK-293T) (PSI 1-6); higher = more stable
[1] = treatment: DMSO, c terminus: a fixed tail appended
[2] = treatment: MLN4924 1 uM, 8 h, c terminus: a fixed tail appended
[3] = treatment: DMSO, c terminus: native
[4] = treatment: MLN4924 1 uM, 8 h, c terminus: native
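Also: 24-mer peptide tiles fused after GFP, lentivirally expressed, FACS-sorted into six equal bins by GFP/DsRed ratio, decoded by Illumina sequencing, PSI is the read-weighted mean bin number.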

Sequence	protein stability index [1]	protein stability index [2]	protein stability index [3]	protein stability index [4]
SCPGSSYRTVVRPTYKVMYKIVTA [EMID1]	2.37 ± 0.53	2.22 ± 0.26		
FSRVVHLYRNGKDQDGDQAPEYRG [MOG]	3.77 ± 0.21	3.88 ± 0.34		
RAPKVLGTTLVVGLLAGVGYFAFM [GDAP1]	3.66 ± 0.29	3.17 ± 0.27		
KRSQSMKSYPSSELRNMCDEHIAS [CLCN6]	4.56 ± 0.34	4.734 ± 0.012		
FQTAIDIFEDRIRGIDIIKWMERY [TRAF3IP2]	1.9 ± 0.34	2.43 ± 0.66		
PAWYVAACRANVKSGAIMSALSDT [PPFIA4]	2.58 ± 0.26	2.25 ± 0.39		
VSSQRFKSSVYRRYNDFVVFQEML [SNX8]	2.1 ± 0.21	2.21 ± 0.39		
VTAGCGFGKDFRKGLLKKGACYGD [PPTC7]	2.79 ± 0.56	2.65 ± 0.11		
ALVYLPGVIAAIVQLHNGTKYKKF [STEAP1]	2.73 ± 0.44	2.75 ± 0.68		
TTVVVFVASMVLGECRQMSSSSQI [CLCN6]	3 ± 0.49	3.22 ± 0.24		
ETYHQQGQCQVLVQRSPWLMMRMG [TCAP]	2.18 ± 0.22	2.23 ± 0.35		
EVTLSEAGSTAGAAETRGAVEGAA [PALM]	5.43 ± 0.39	5.43 ± 0.17		
NIMNKEAFMNQEITKAFHVRKANR [RHOBTB1]	3.35 ± 0.18	3.45 ± 0.34		
LCDVVLVVGAKKIYAHRVILSACS [KLHL20]	2.7 ± 0.29	2.74 ± 0.39		
ENIKGYYIIIVPLKKSRGKFIKPW [PTPRD]	2.67 ± 0.86	1.86 ± 0.45		
WGCSCCPPETKHQALSGTPKKGPA [TSPAN10]	4.13 ± 0.41	4.44 ± 0.26		
SSSSSSSSSSSSSSSSGPGHGEPD [TMEM40]	5.49 ± 0.36	5.4 ± 0.35		
VTPEAKDLINKMLTINPAKRITAS [CAMK2D]	3.29 ± 0.29	3.33 ± 0.2		
QNLVYYRFHRARWGLEEEDFQPRE [P3H4]	2.38 ± 0.17	2.25 ± 0.27		
LIPRTMADQQARRQERKPKDRRK [NFE2L1]			5.32 ± 0.22	5.217 ± 0.028
FQNRRMKHKRQMQDPQLHSPFSGS [VENTX]	3.3 ± 0.38	3.48 ± 0.31		
SRREIRKIMGVEEEDDDDDDDDNL [ANKRD40]	5.44 ± 0.12	5.53 ± 0.16		
DAVQTSLMDEGASSEKKRQSSADG [RBBP5]	5.49 ± 0.26	5.48 ± 0.19		

Sequence	protein stability index [1]	protein stability index [2]	protein stability index [3]	protein stability index [4]
FIIFGTMEEMQNKAVVFFVFYLWS [HACD3]	2.8 ± 0.69	2.75 ± 0.13		
APDDSKAQAHRIHIDPEIQDGSPT [PDLIM4]	5.59 ± 0.23	5.47 ± 0.12		
PFREILCKKLHIPLKAQNDLDISR [P2RY14]	2.39 ± 0.12	2.46 ± 0.29		
SASPIKDQPVMAVKTGEDGSNLDD [FANCE]	5.66 ± 0.27	5.56 ± 0.2		
CGHTFCRLCLPALSQMGAQSSGKI [TRIM15]	2.12 ± 0.42	2.36 ± 0.46		
EQREWVLKSSILIAMAVYTYLRLI [INTS3]	2.6 ± 0.59	2.59 ± 0.45		
SGQRLGGYRTSAVASGLQFDVETR [WDFY2]	3.82 ± 0.23	3.74 ± 0.27		
MVHVARLLLLLLTFFLRTDAETPP [PTPRD]	2.91 ± 0.44	2.95 ± 0.44		
GTGGEEVEALQLSARWLEVLRTYL [FBXO33]	2.41 ± 0.23	2.32 ± 0.31		
SASSSTTCCESTQRSVSDVASGST [IRX6]	5.12 ± 0.26	5.26 ± 0.11		
TGTVHRIDNTTVIYNSNIFTDPFF [KCNA1]	2.89 ± 0.27	3.05 ± 0.2		
PRNPTVRWGYVAMKFAQVFGCFFY [SOAT1]	2.33 ± 0.2	2.18 ± 0.2		
TPLTEGSEDLDGHSDPEESFARDL [RETREG3]	5.51 ± 0.18	5.524 ± 0.053		
KELVEFAQDDDRLREERKKAKKNK [CLINT1]	5.49 ± 0.096	5.53 ± 0.17		
NRLSELEVANKDLTERKYKGDSTI [SASS6]	4.71 ± 0.38	4.96 ± 0.38		
WLLLLTRGLVGVGEASYSTIAPTL [SPNS1]	2.67 ± 0.44	2.83 ± 0.32		
EEDDGRGRGLLRWDSFSAWLHCVC [DENND6A]	3.06 ± 0.25	3.04 ± 0.29		
PTSPVYRGSSSGPSSPARVSTTPR [MTUS2]	5 ± 0.25	4.95 ± 0.33		
VTQREHSSEHVTESVADLLALEEP [SLC6A17]	5.3 ± 0.47	5.12 ± 0.3		
SSSDLVMRARDSVYHIECFRCSVC [ISL2]	2.5 ± 0.33	2.72 ± 0.51		
SAGGHGGLLNDTSAPHLENSGHTI [KCNA4]	4.21 ± 0.46	4.48 ± 0.2		
LLRQLGRDAGATPSAAGAPASAPG [ANKRD9]	4.12 ± 0.4	4.36 ± 0.15		
TIEELQQKILCAKAENARLVVNID [KRT34]	3.37 ± 0.31	3.41 ± 0.48		

Sequence	protein stability index [1]	protein stability index [2]	protein stability index [3]	protein stability index [4]
KDNEFTSKPWHWPINYQGLRFSGV [POMT2]	2.23 ± 0.23	2.42 ± 0.22		
AQSRLEDPGQDLVPKQAIQVQEAD [DLX1]	5.35 ± 0.18	5.32 ± 0.27		
DVNDNSPELTITSLFSPVTEDSPL [PCDHGA10]	4.53 ± 0.21	4.65 ± 0.36		
LPPNNSYADFERFSKVLEEAAAAE [DAPK3]	4.95 ± 0.57	5.07 ± 0.058		
FTQPQQTSFALERNLRTQQEIEDK [C8orf76]	4.87 ± 0.37	4.9 ± 0.24		
FRRGSGSACSLLCCCGRDPSEEHS [MCOLN1]	3.58 ± 0.35	3.33 ± 0.24		
LQARERGEEQVELSTIEELIKDAI [C2CD2L]	4.14 ± 0.084	4.13 ± 0.19		
CALEEYVRSQYPNQPTRFGKLLLR [NR2F2]	2.22 ± 0.17	2.33 ± 0.25		
AFRYLSWILFPLLGCYAVYSLLYL [CLPTM1]	2.29 ± 0.44	3.03 ± 0.66		
FYGETVADYFATFVQREEQLQFLI [CDS1]	2.71 ± 0.79	2.43 ± 0.32		
LPLRVSFCPLSLWRWQLYAAQSTK [CLPTM1]	2.31 ± 0.29	2.24 ± 0.7		
EDYPAALPNHKPKGTFKDYVRDRA [ETS1]	4.57 ± 0.1	4.62 ± 0.32		
LSPPEQAAQPMQPLPESLASLHPS [PLAGL1]	5.12 ± 0.16	4.93 ± 0.31		
QQFKQYSRHVTTRAALTYTSLEIT [M1AP]	2.44 ± 0.18	2.6 ± 0.3		
GYHQVPGSAAPGSPLAADPACLGQ [FOXJ1]	4.46 ± 0.22	4.29 ± 0.18		
SPWNFLGDELYEQSDEEQDSVKVA [CLPTM1]	5.32 ± 0.21	5.36 ± 0.4		
PAAMGPPGAPPGRDLASVPPELTA [DVL3]	4.88 ± 0.29	4.89 ± 0.075		
EKRAKRLSSAPSSRAEPIRTTVFQ [ZMAT5]	3.74 ± 0.54	3.86 ± 0.061		
GERETRTPEELTILGETQEEEDEI [CLCN6]	5.79 ± 0.11	5.64 ± 0.37		
VCIVQKNDTKKMYAMKYMNKQKCV [STK32A]	2.21 ± 0.11	2.5 ± 0.45		
RDAKAAMAGRLMIRKLVAEKLNIP [AASDHPPT]	2.62 ± 0.28	2.79 ± 0.36		
NITINIVDDHTPWVKGSVPPPLDQ [CLPTM1]	2.83 ± 0.28	2.77 ± 0.34		
LKTSEVTQHLPRECLPENLGGYVK [PTPN9]	3.97 ± 0.38	3.73 ± 0.56		

Sequence	protein stability index [1]	protein stability index [2]	protein stability index [3]	protein stability index [4]
DARYKLHHHLHKTLREITDQEHNV [TEKT4]	3.77 ± 0.29	4.02 ± 0.14		
GSACSLLCCCGRDPSEEHSLLVN [MCOLN1]			2.3 ± 0.39	2.27 ± 0.38
AAKIIPHSRVAKPHQREKIDKEIE [PLK2]	5.02 ± 0.42	4.7 ± 0.4		
MTMQFISHRFPEDHDPTIEDAYKI [RIT1]	3.24 ± 0.15	3.36 ± 0.22		
LLWRKQLFCDVTLTAQGQQFHCHK [KLHL14]	2.23 ± 0.41	1.99 ± 0.23		
ILGPVVGGYLTELEDGFYLTAFIC [MFSD9]	2.99 ± 0.34	3.05 ± 0.88		
PKTSGTRATSLGRPEEEEDELAHR [CPOX]	5.42 ± 0.36	5.42 ± 0.19		
LKKHGPICQKTATKKRKTFDSSRQ [ZC2HC1A]	4.09 ± 0.26	4.13 ± 0.38		
NKVLVCPMKSAPVMLTLSDSKHVV [RBBP5]	2.57 ± 0.25	2.75 ± 0.19		
SGRNGEVSLDISPDLPFQIKPSEN [PCDHGC5]	4.47 ± 0.25	4.56 ± 0.26		
ELTNGVINAAFMLLFKDLIKLFAC [SNAP91]	3.57 ± 0.5	3.14 ± 0.57		
IMATLGFGDSPKAEKRQIGDQEGP [FBF1]	4.37 ± 0.17	4.3 ± 0.12		
LMSLQNQLKESKSKIDALSSEKLN [CEP70]	4.13 ± 0.15	4.05 ± 0.19		
QLIEEGYVGEPLVCEVQVHGGSLL [GFOD1]	2.44 ± 0.15	2.46 ± 0.39		
PEISRIIVDPTTGKRYCRGKVLGK [PLK2]	3.9 ± 0.22	4.04 ± 0.2		
ALSCHEQEMVVSSLVIGALLASLT [SLC2A12]	3 ± 0.64	3.09 ± 0.29		
TRVPRAAIVFTDGRAQDDVSEWAS [MATN2]	4.34 ± 0.36	4.48 ± 0.45		
HEKTVDIYGHVTLMRAQRNYMVQT [PTPRD]	2.32 ± 0.4	2.18 ± 0.43		
SKDWVFLNYTYKRFEGLTQRGSIP [STK38L]	2.54 ± 0.78	2.48 ± 1		
YLRSKLCSLYENDCIFDKFECAWN [PPP2R2C]	2.81 ± 0.57	2.61 ± 0.66		

Source: the supplement of paper PMC10567573
